Patent US20120073987A1, “ELECT[…] AND APPARATUS OF IDENTIFYING THE PRESENCE OF A TARGET” (priority 2009, published 2012)

Columns and labels:
[1] = target: T1, HIV-1 reverse transcriptase (Human immunodeficiency virus type 1 group M subtype B, UniProt P04585); assay: Cyclic voltammetry detection of HIV-1 RT binding on peptide-RT-modified Thc-Fc Au microelectrodes
T1 construct: HIV-1 reverse transcriptase (200 U, T3610Y, RT) was purchased from GE Healthcare; purchased GE Healthcare T3610Y
Procedure: (§1) Au microelectrodes were incubated in 1 mM ethanolic solution of Thc-Fc overnight (˜15 h). The electrodes were rinsed with ethanol and Millipore water (18.2 MΩ.cm). This layer was terminated by the amino-reactive carboxyl moieties that allowed the attachment of the peptides. The carboxyl groups were activated with 2 mM EDC and 5 mM NHS in 50 mM phosphate buffer solution (pH 7.4) for 2 h. The N-terminus of the peptides was attached to the activated carboxyl groups of Thc-Fc to give the final electrode interface. The peptides (1 mM) were incubated with the activated electrodes in 50 mM phosphate buffer solution (pH 7.4) for 2 h on a block-shaker at room temperature. Thus, the peptides were conjugated with the Fc compounds on the surface. The remaining active-esters were quenched by incubating the peptide-modified electrodes in 100 mM ethanolamine solution for 1 h on a block-shaker at room temperature. The peptide-modified electrodes were then incubated in 1 mM hexanethiol solution for 5 min to produce a diluted film and to back-fill the empty spots on the electrode surface. Finally, the electrodes were rinsed with ethanol and Millipore water to give the peptide-modified sensor surfaces. […]

HIV-1 integrase = target: T2, HIV-1 integrase (Human immunodeficiency virus type 1 group M subtype B, UniProt P04585); assay: Cyclic voltammetry detection of HIV-1 IN binding on peptide-IN-modified Thc-Fc Au microelectrodes
T2 construct: HIV integrase (100 μg, HIV-122, IN) was purchased from ProspecBio (USA); purchased ProspecBio HIV-122
Procedure: as §1

[2] = 100 nM protein solution, n=3 electrodes, FIG. 7

| Sequence | electrochemical response to exposure to HIV-1 RT (selectivity) [1, 2] | detection limit for HIV-1 RT ([1]; estimated from 3(Sb/m), CV at 100 mV s^-1 in 2 M NaClO4, 1 h incubation in RT assay buffer pH 7.2) [nM] | electrochemical response to exposure to HIV-1 IN (selectivity) (HIV-1 integrase; [2]) | detection limit for HIV-1 IN (HIV-1 integrase; CV at 100 mV s^-1 in 2 M NaClO4, IN assay buffer pH 7.5) [nM] |
| --- | --- | --- | --- | --- |
| VEAIIRILQQLLFIH [peptide-RT, purchased peptide ligand for HIV-1 RT, immobilised on ferrocene-modified gold electrode] | responded to the exposure of HIV-1 RT | 20 |  |  |
| YQLLIRMIYKNI [peptide-IN, purchased peptide ligand for HIV-1 IN, immobilised on ferrocene-modified gold electrode] |  |  | responded to the exposure of HIV-1 IN | 20 |
